Test results published in publication PMC11082178.

Target: CRF01_AE Env consensus with redesigned HV loops, version 1 (shortest V1HV, without the 'IGNITD' motif), Env on pseudovirus (HIV-1 CRF01_AE (consensus))

For 10-1074 (antibody), the neutralisation of Env pseudovirus in TZM-bl cells, IC50 was 0.544 µg/mL.
